Laboratory results reported in patent US20120208237A1 (Novo Nordisk, published 2012).

Target: T1, KIR2DS3 expressed on transfected cells (human, UniProt Q14952 22-304)
T1 construct: whole, on cells
Assay: flow cytometry on cells transfected with KIR2DS3 (fifth column; its head is printed KIRDLS1 a second time, the legend's order gives KIR2DS3)
Procedure: The KIR2DL cross-reactive mAbs were then tested for their ability to react with KIR at the surface of cells by flow cytometry. Briefly, the binding of the human anti-KIR mAbs was tested by incubating them with various cell lines stably over-expressing KIRs (e.g., YTS-2DL1, BWZ-KIR2DL2 and BWZ-KIR2DS4) or not expressing KIRs (e.g., YTS and BWZ). Briefly, cells were incubated with various concentrations (typically 0-50 μg/ml) of human anti-KIR mAb1-7F9 in DMEM-medium containing 2% FCS. After incubation, cells were washed and incubated with APC-conjugated secondary antibodies specific for human IgG. All incubations and washing steps were performed at 0-4° C. Subsequently, cells were washed, resuspended in PBS, and analyzed by flow cytometry on a FACScalibur or a FACScanto (both from Beckton Dickinson).

T1 sequence (Q14952 22-304): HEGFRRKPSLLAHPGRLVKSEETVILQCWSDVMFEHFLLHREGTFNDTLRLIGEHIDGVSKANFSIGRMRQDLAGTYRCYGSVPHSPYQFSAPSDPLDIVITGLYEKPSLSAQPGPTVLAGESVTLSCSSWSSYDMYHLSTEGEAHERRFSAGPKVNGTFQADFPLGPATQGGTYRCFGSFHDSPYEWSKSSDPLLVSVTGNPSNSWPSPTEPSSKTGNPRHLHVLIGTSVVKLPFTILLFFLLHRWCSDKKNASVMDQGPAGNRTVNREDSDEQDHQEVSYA

- binding result: no binding (tested: 1 µg/ml)
B1: human monoclonal antibody 1-7F9 (antibody, human IgG4, kappa, V domains shown)
VH: QVQLVQSGAEVKKPGSSVKVSCKASGGTFSFYAISWVRQAPGQGLEWMGGFIPIFGAANYAQKFQGRVTITADESTSTAYMELSSLRSDDTAVYYCARIPSGSYYYDYDMDVWGQGTTVTVSS
VL: EIVLTQSPVTLSLSPGERATLSCRASQSVSSYLAWYQQKPGQAPRLLIYDASNRATGIPARFSGSGSGTDFTLTISSLEPEDFAVYYCQQRSNWMYTFGQGTKLEIKR
notes: also called HuKIR 1-7F9; HuKIR1-7F9
